Source: patent US20250115680A1 (PROFOUNDBIO US, published 2025)

T1: cynomolgus PTK-7 recombinant protein (cynomolgus monkey, UniProt A0A2K5VNI5 39-712)
T1 construct: also called cynomolgus monkey PTK7 protein; cyano PTK7
T1 sequence: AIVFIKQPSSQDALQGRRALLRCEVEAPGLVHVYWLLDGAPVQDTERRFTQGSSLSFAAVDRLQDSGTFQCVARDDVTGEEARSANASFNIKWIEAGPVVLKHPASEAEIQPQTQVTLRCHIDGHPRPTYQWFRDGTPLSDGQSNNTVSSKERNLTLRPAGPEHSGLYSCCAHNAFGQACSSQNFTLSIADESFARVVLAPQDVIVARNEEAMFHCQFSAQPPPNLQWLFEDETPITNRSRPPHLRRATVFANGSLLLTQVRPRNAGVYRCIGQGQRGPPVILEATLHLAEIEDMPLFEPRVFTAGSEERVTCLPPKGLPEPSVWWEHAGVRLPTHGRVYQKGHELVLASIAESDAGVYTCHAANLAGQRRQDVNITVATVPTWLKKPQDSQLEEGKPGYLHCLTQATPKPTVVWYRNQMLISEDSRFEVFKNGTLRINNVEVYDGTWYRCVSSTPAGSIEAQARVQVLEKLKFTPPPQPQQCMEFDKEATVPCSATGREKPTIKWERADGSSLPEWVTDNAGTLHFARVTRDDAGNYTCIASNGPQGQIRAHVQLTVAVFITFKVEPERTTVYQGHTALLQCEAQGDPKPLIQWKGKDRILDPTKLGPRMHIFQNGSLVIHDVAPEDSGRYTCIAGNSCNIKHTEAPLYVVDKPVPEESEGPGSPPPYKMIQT

T2: human PTK7 on the surface of PTK7-expressing tumor cell lines (human, UniProt Q13308 31-1070)
T2 construct: whole, on cells
T2 sequence (looked up): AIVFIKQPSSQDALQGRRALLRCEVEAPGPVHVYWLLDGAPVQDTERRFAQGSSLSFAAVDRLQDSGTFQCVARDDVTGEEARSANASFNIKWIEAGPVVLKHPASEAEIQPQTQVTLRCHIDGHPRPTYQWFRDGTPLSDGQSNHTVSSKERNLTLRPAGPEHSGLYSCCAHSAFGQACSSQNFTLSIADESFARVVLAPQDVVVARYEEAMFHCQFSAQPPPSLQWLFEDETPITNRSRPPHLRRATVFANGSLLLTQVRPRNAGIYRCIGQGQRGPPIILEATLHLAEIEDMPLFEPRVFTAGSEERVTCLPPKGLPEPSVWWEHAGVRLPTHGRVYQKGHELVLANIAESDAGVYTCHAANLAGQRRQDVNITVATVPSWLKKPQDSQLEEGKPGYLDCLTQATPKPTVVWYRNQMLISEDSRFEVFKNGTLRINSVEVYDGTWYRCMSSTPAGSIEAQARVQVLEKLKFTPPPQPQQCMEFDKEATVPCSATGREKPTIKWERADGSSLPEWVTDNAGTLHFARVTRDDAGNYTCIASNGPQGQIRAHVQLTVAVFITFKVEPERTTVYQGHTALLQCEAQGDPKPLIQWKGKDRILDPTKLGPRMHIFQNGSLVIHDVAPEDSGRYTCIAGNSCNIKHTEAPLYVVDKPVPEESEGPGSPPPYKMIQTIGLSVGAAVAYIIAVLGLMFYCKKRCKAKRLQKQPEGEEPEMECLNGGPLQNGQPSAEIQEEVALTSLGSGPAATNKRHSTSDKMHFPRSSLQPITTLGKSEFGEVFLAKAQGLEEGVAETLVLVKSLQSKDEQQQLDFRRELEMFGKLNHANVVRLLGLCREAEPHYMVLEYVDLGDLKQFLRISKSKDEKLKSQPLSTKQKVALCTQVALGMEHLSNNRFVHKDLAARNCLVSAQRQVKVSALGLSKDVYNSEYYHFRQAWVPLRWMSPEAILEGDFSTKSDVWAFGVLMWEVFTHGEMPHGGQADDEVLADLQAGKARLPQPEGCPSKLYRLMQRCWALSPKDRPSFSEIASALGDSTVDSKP

T3: human PTK-7 recombinant protein (human, UniProt Q13308 31-704, limits assumed)
T3 construct: also called human PTK7 protein
T3 sequence (looked up): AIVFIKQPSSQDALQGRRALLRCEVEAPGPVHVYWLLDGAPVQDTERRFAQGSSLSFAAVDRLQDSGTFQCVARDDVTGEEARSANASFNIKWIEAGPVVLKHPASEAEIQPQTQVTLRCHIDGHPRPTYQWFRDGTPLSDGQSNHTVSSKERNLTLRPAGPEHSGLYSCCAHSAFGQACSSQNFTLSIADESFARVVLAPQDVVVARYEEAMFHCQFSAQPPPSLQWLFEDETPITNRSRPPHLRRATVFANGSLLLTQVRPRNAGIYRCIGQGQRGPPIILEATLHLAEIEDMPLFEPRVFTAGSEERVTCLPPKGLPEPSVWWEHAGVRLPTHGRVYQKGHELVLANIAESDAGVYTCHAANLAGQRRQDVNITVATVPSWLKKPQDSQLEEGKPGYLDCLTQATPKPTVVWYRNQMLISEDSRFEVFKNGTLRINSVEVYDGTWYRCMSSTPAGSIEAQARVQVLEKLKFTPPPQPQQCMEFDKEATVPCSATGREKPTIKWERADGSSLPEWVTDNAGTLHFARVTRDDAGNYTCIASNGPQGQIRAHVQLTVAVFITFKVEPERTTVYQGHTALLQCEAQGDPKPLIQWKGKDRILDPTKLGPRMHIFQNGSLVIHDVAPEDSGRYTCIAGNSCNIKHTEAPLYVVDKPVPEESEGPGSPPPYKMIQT


Key:
[1] = target: T1, cynomolgus PTK-7 recombinant protein; test: ELISA, plate-coated cynomolgus PTK7 protein, anti-human Fc-HRP detection
Method: (§1) Binding specificity property was tested by ELISA according to a standard protocol. Specifically, 96-well micro-plates were coated with 2 μg/mL human, cynomolgus, mouse, and rat PTK-7 recombinant protein in PBS 100 μL per well, incubated overnight at 4° C. Plates were washed twice by TBS+0.5% Tween20. 200 μL of blocking buffer (2% BSA in PBS) was added to each well and incubated at 37° C. for 2 hours. Plates were washed using the buffer mentioned above. Serially diluted antibodies were added to the ELISA plate with 100 μL per well and incubated for 1 hour at room temperature. Then plates were washed for 3 times. After washing, HRP conjugated anti-human Fc antibody solution (abcam, ab98624, diluted with blocking buffer) was added to the plate with 100 μl per well. The plates were incubated at room temperature for 1 hour and then washed for 3 times. Then TMB solution was added to plates with 100 μl per well, placed at room temperature for 5-15 mins, then the stop solution (2M H₂SO₄) was added with 50 μl per well. Finally, the result was measured by absorbance at A₄₅₀ and A₆₃₀.

[2] = target: T2, human PTK7 on the surface of …; test: flow cytometry on MDA-MB-453 cells, PE anti-human Fc detection, MFI(PE)
[3] = target: T3, human PTK-7 recombinant protein; test: ELISA, plate-coated human PTK7 protein, anti-human Fc-HRP detection
Method: as §1

| EC50 [1] [nM] | EC50 [2] [nM] | EC50 [3] [nM] | Binder |
| --- | --- | --- | --- |
| 1.67 | 0.488 | 0.027 | humanized antibody 2C5 (antibody, V domains shown, Only variable regions are tied to 2C5; It was detected with anti-human Fc, so it has a human Fc) VH: QVQLVQSGAEVKKPGASVKVSCKASGYTFTDYYINWVRQAPGQGLEWMGDINPYSGGPVYNQKFMARVTMTVDKSINTAYMELSRLRSDDTAVYYCARGDYYGSNYNYWGQGTLVTVSS VL: EIVLTQSPATLSVSPGERATLSCRASQNIGTSIHWYQQKPGQAPRLLIKFASESISGIPARFSGSGSGTEFTLTISSLQSEDIAVYYCQQSNNWPYTFGQGTKLEIK |
| 2.61 | 0.339 | 0.032 | humanized antibody 2C8 (antibody, V domains shown, Only variable regions are tied to 2C8 by name; It was detected with anti-human Fc) VH: QIQLVQSGAEVKKPGASVKVSCKASGYTFTTYGMSWVRQAPGQGLEWMGWINTHSGVPTYVDEFKGRVTMTLDTSTSTAYMELSSLRSEDTAVYYCARSPFDYGSRGAWFVYWGQGTTVTVSS VL: DVVMTQSPDSLAVSLGERATINCRSSQSIVHNSGDTYLEWYQQKPGQPPKLLIYKVSNRFPGVPDRFSGSGSGTDFTLTISSLQAEDLAVYYCFQGSHVPWTFGGGTKVEIK |
| 1.14 | 0.623 | 0.022 | humanized antibody 13C4 (antibody, V domains shown, Only variable regions are tied to 13C4; It was detected with anti-human Fc) VH: QVQLVESGGGLVKPGGSLRLSCAASGFAFSTYDMFWIRQAPGKGLEWVSTISSGGGYTYYPGSVKGRFTISRDNAKNSLYLQMNSLRAEDTAVYYCVRPLLRDSYFYFDVWGQGTMVTVSS VL: EIVMTQSPATLSVSPGERATLSCRASSSVSSSYLHWYQQKPGQAPRLLIFRTSNLASGIPARFSGSGSGTEYTLTISSLQSEDAAVYYCQQYSGYPLTFGQGTKLEIK |
